Among the data in patent publication US20230227538A1 (published 2023) are Kd and EC50 values, retold here.

Usually Kd stands for the free concentration of one partner at which half of the binding sites on the other are occupied at equilibrium, for simple one-to-one binding. Read a high Kd as lower affinity. The EC50 is the midpoint of the concentration-response curve. Low readings indicate higher potency in that assay, high ones lower potency in that assay.

The target in one assay is SpikeS2P. Briefly: SPR. On the technique in general: In SPR one partner is held on a chip, and binding of the other changes the refractive index at the surface.
The target in assay [1] is SARS-CoV-2 Spike receptor binding domain (RBD) (SARS-CoV-2, UniProt P0DTC2 319-541). Kind of assay: flow.
Another assay concerns the target SC2 spike ECD. Briefly: SPR.

B1: mNb6 (VHH)
VHH: QVQLVESGGGLVQAGGSLRLSCAASGYIFGRNAMGWYRQAPGKERELVAGITRRGSITYYADSVKGRFTISRDNAKNTVYLQMNSLKPEDTAVYYCAADPASPAYGDYWGQGTQVTVSS
Take B1: the Kd with SpikeS2P stood at 0.45 nM.

B2: Nb6 (AeroNab6, NbCOV6, clone pNbCOV006A) (VHH)
VHH: QVQLVESGGGLVQAGGSLRLSCAASGIIFGRNAMGWYRQAPGKERELVAGITRRGSITYYADSVKGRFTISRDNAKNTVYLQMNSLKPEDTAVYYCAADPASPAPGDYWGQGTQVTVSS
In the case of B2, the EC50 in assay [1] turned out to be 30 nM.

B3: NbCOV11 (VHH)
VHH: HVQLVESGGGLVQAGGSLRLSCAVSGASAERVGWFRRAPGKEREFVAAIGANGGSTNYLDSVKGRFTISRDNAKNTVYLQMNSLKPQDTAVYYCAARNLETFDYTYWGRGTQVTVSS
For B3, the Kd in the assay with SC2 spike ECD turned out to be 141 nM.
